kcat/KM of dephosphorylation of the peptide by purified PTP1B data for one molecule are collected here from PMC11060668.

Where no end group is shown, it is not given here. [ ]: non-standard residue; d: D form. pY = N[C@@H](Cc1ccc(OP(=O)(O)O)cc1)C(=O)O

This assay addresses T1, PTP1B (residue 1-321) (UniProt P18031).
T1 sequence: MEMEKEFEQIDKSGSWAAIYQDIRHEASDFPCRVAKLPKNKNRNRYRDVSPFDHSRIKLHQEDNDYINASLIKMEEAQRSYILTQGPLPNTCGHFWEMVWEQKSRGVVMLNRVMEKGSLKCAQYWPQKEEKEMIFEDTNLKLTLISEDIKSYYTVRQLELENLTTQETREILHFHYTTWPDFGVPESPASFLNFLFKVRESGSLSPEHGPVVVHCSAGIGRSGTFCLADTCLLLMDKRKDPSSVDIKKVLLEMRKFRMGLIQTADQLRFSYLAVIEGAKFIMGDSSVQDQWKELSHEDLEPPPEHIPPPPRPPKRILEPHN

B1: alpha-actinin4 derived di-phospho-tyrosine peptide ELDpYpYDSHN (peptide)
peptide: ELD[pY][pY]DSHN
For B1, the kcat/KM of dephosphorylation of the peptide by purified PTP1B turned out to be 2.17e+06 M^−1 S^−1.
